Assay [1] deals with endogenous mitochondrial receptor TOMM20 (in HeLa CCL-2 cells) (UniProt Q15388). Put plainly: cell-based or functional assay.
Assay [2] deals with Lifeact-mVenus (GFP mutant, expressed in transfected HeLa CCL-2 cells). Put plainly: confocal microscopy of live HeLa CCL-2 cells transfected with Lifeact-mVenus after delivery of 500 nM antibody with TNB-R10; colocalization of antibody and mVenus signals.

Sequence of endogenous mitochondrial receptor TOMM20 (in HeLa CCL-2 cells) (Q15388 whole entry): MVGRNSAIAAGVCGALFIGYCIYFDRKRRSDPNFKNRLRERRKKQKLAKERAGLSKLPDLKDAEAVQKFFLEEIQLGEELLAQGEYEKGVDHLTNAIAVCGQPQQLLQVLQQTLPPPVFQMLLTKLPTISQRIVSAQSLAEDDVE

In assay [1], “Anti-Tom20/Tomm20, clone 2F8.1 (antibody)” returned a pearson correlation coefficient (PCC) of the colocalization of the delivered antibody with the mitochondrial marker MitoTracker Red CMXRos of 0.58. As to “Alexa Fluor 594 anti-GFP Antibody, Clone 1GFP63”, in assay [2], the pearson correlation coefficient (PCC) of colocalization was determined as 0.8.

The record behind these values is patent US20250269046A1, “CELLULAR UPTAKE OF LARGE BIOMOLECULES ENABLED BY CELL-SURFACE-REACTIVE CELL-PENETRATING PEPTIDE ADDITIVES” (FORSCHUNGSVERBUND BERLIN E.V., priority 2021, published 2025).
